Results on 28 sequences are retold here after the supplement of paper PMC9170038.

In series [1] the test system is MS2 coat protein. Put plainly: apparent KD of MS2 coat protein, switch ON state; designed switch direction (-1 OFF switch, 1 ON switch): -1; higher = weaker reporter binding. Conditions: FMN input: 0 or 200 uM; Eterna round: R93 (includes R88 designs). In short, it runs like this: (§1)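 Apparent KD per design is the median of normalised cluster binding-curve fits. Designed RNA switches transcribed on-chip from Illumina sequencing clusters were titrated with SNAP-549-labelled MS2 coat protein in twofold steps from 0.7 or 1.5 nM to 3 µM, with 0.8–1.5 h down to 10–20 min per step. Buffer: 100 mM Tris-HCl pH 7.5, 80 mM KCl, 4 mM MgCl2, without or with constant ligand.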

The test system of series [2] is MS2 coat protein. Put plainly: apparent KD of MS2 coat protein, switch OFF state (with FMN for OFF switches, without FMN for ON switches); designed switch direction (-1 OFF switch, 1 ON switch): -1; higher = weaker reporter binding. Conditions: FMN input: 0 or 200 uM; Eterna round: R93 (includes R88 designs). In short, it runs like this: as §1
The subject of series [3] is MS2 coat protein. Nature of the series: apparent KD of MS2 coat protein; designed switch direction (-1 OFF switch, 1 ON switch): 1; higher = weaker reporter binding. In short, it runs like this:
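Apparent KD, taken as the median over clusters for each design, was obtained by curve-fitting normalised cluster fluorescence. Designed RNA switches had been transcribed on Illumina chips by stalled E. coli RNA polymerase and titrated with SNAP-549-labelled MS2 coat protein, doubling from 0.7 or 1.5 nM to 3 µM.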

[4] abbreviates: input ligand: microRNA oligo, concentration not stated.
[5] abbreviates: Eterna round: R95, input ligand: FMN 200 uM.
Where [6] appears, read: Eterna round: R95, input ligand: microRNA oligo, concentration not stated.
Setting [7] is: Eterna round: R95, input ligand: none.

Consider “AAAAAGGGAGGAUAUGCAAAAAAAAAAAAAAAAAAAAAAAAACAUGAGGAUCACCCAUGUAGAAGGCCCAAAAA [Dora Baggins - Jieux - Exclusion 2]”, for which the entries for the “apparent KD of MS2 coat protein” value in series [1] and in series [2] were 0.0324 µM and 0.0344 µM, respectively.
The matching figures for “AACUGUACAGGAUAUACAUGAGGAUCACCCAUGUGAGAAUUAAGUGGAAAACCACAAAGUAGAAGGGUACAGGA [Mat - Exclusion 3 - JL mod - D18]”: 0.0276 µM and 0.136 µM.
For “AACAGGACAGGAUAUACAUGAGGAUCACCCAUGUGAGAAUUAAGUGGCGUACCACAAAGUAGAAGGGUCCUGGA [Mat - Exclusion 3 - JL mod - D40]” the same measures were 0.0445 µM and 0.216 µM.
For “AACAUACAUGAGGAUCACCCAUGUCAGGAUAUGCCGGGUUAGAAAAAAAAAAAAAAACGUAGAAGGGACAAAAA [Bilbo Confounded 3 - Jieux - Exclusion 1]” the same measures were 0.0624 µM and 0.0622 µM.
For “AACAGUACAGGAUAUACAUGAGGAUCACCCAUGUAAAAAUAAAAGGGCGUACCACAAAGUAGAAGGGUACUGGA [Moding Maslow revisited (73) 12]”, the results for the “apparent KD of MS2 coat protein” value in series [1] and in series [2] were 0.0447 µM and 0.034 µM, respectively.
For “AGGAAGUGAGGAUAUGCAUCAUAUAGUGGACGCUAUAGGAUGUAGAAGGCACAUGAGGAUCACCCAUGUUUAAA [EX4 Malc#40]” the same measures were 0.029 µM and 0.032 µM.
The matching figures for “AAUGGUGCAGGAUAUACAUGAGGAUCACCCAUGUAGAUCAGACAUAUGGUCGAAACAUGUAGAAGGGCACCAAA [Ex 3May 54]”: 0.112 µM and 0.319 µM.
For “GAGAGCCGAGGAUAUACAUGAGGAUCACCCAUGUAAAAAAAAAAAAAAAAAAAAUCAUGUAGAAGGCGGCUUUC [hsl_exclusion3]” the same measures were 0.234 µM and 0.0289 µM.
Take “UUCACCUUUUUUAACAUGAGGAUCACCCAUGUAUAUUGUACGUAGGAUAUCGAUGCUUUUUUUUUCGAGAAGGACGAUGUAAGU [JR_SSND3_Sub051] (Eterna round: R96, puzzle: Same State NG 3)”: the “apparent KD of MS2 coat protein” value in series [3] (input ligand: FMN 200 uM) stood at 0.0386 µM; in series [3] (setting [4]) it was 0.0342 µM; in series [3] (input ligand: none) it was 0.0375 µM.
The matching figures for “AUUGCUUUCGCAGGAUAUGAUGCGAAAAUUGCGUCAGAAGGGUGGAGUCUCUCAUUGCUAGAGGACAUGAGGAUCACCCAUGUC [SameState NG1 #85] (Eterna round: R96, puzzle: Same State NG 1)”: 0.188 µM, 0.309 µM and 0.541 µM.
The matching figures for “ACAUGAGACAGAGGAUAUGUUGUACCUACAUGUGACAUGAGGAUCACCCAUGUGGUAAGUAUGAUACAGAAGGCUGAGAUAUGU [Equivalance 64 - Jieux - Same State NG 2] (Eterna round: R96, puzzle: Same State NG 2)”: 0.015 µM, 0.0183 µM and 0.0242 µM.
For “UUGAUAUGCGCAGGAUAUGGUGAGGAUCACCCACUAGAAGGGUGCACAUGAGAAUCGAACAUGAGGAUCACCCAUGUUCUGAGC (Eterna round: R96, puzzle: Same State NG 1)” the same measures were 0.831 µM, 0.295 µM and 1.03 µM.
Consider “GGUCCAUCAUGAGGAUAUGGCACCUUAUUGGUGCCAGAAGGCAUGUAAAUUAUAAUAAAACAUGAGGAUCACCCAUGUUGGACC [Eli NG1ss - 97] (Eterna round: R96, puzzle: Same State NG 1)”, for which the “apparent KD of MS2 coat protein” value came to 0.857 µM in series [3] (input ligand: FMN 200 uM), 0.0195 µM in series [3] (setting [4]) and 0.0784 µM in series [3] (input ligand: none).
Take “GUUACAUGAGGAUCACCCAUGUAUGUGUGGGAGUAAGUGUCUUAGGAUAUCUAGUAUUUAAUUAAAGAGAAGGAAGAUUGUUGU [JMF's solution 66] (Eterna round: R96, puzzle: Same State NG 3)”: the “apparent KD of MS2 coat protein” value in series [3] (input ligand: FMN 200 uM) amounted to 0.126 µM; in series [3] (setting [4]) it was 0.0746 µM; in series [3] (input ligand: none), 0.116 µM.
As to “AGAAAAGUUUACGAGGAUAUGUUCCGCAUAACAUGAGGAUCACCCAUGUGAACAAGAAAGGCGACGCAGAAGGCGUGAGCAAAAG [Mat - Same State 2 - Mod of UCT - D98] (puzzle: Same State 2)”, the “apparent KD of MS2 coat protein” value in series [3] (setting [5]) is 0.0388 µM; in series [3] (setting [6]), 0.0821 µM; in series [3] (setting [7]), 0.116 µM.
With “GCUAGAAUUAAAGCCAACAUGAGGAUCACCCAUGUAUGUUGGUAGGAUAUCGUUUGCUUUGCAAACGAGAAGGGCCAAACUAGC [JL SSNG3 1.07] (Eterna round: R96, puzzle: Same State NG 3)”, the results for the “apparent KD of MS2 coat protein” value in series [3] (input ligand: FMN 200 uM), in series [3] (setting [4]) and in series [3] (input ligand: none) were 0.0647 µM, 0.143 µM and 0.111 µM, respectively.
With “AAACGGCCGAACGGAGGGCCACAUGAGGAUCACCCAUGUACAUAGGAUAUCACGCCAACGAAGCGUGAGAAGGGUGAUUAAAAC [Anriusxees] (Eterna round: R96, puzzle: Same State NG 3)”, the figures for the “apparent KD of MS2 coat protein” value in series [3] (input ligand: FMN 200 uM), in series [3] (setting [4]) and in series [3] (input ligand: none) were 0.341 µM, 0.00464 µM and 0.104 µM, respectively.
“CGUCCAGCCUGAGCUGGACAAAAGCAUGUACAUGAGGAUCACCCAUGUUCAUGUACAAGCUUUUUGCUCGUCUUACA [salish99_208a_r3_091x] (puzzle: Sensor for hsa-mir-208a)”: the “apparent KD of MS2 coat protein” value was found to be 0.691 µM in series [3] (setting [5]), 0.0162 µM in series [3] (setting [6]) and 0.695 µM in series [3] (setting [7]).
Take “GGAAUAUGAUGUUACAUGAGGAUCACCCAUGUAGUAAUAACUAAGGAUAUCUGAGGAGGAGGAGAAGAGAAGGUAGGAUCAUAA [AK SSNG3-V2-10] (Eterna round: R96, puzzle: Same State NG 3)”: the “apparent KD of MS2 coat protein” value in series [3] (input ligand: FMN 200 uM) was determined as 0.0238 µM; in series [3] (setting [4]), 0.0222 µM; in series [3] (input ligand: none), 0.0332 µM.
For “GCGAGGAUAUGGAGAGGAUCACCCUCUAGAAGGCGCGAAGGCGAGGAUAUGGAGAGGAUCACCCUCUAGAAGGCGCACUUCUCU [pwkr ssNG3 DX 2xF5 +2xFMN.5] (Eterna round: R96, puzzle: Same State NG 3)” the same measures were 0.222 µM, 0.162 µM and 0.235 µM.
For “GGAGCCGGCCUAGGAUAUUUCAUAAAAACACAUGAGGAUCACCCAUGUAGGCCAGAAGGCCUUGGGAAGAAGGAGGUCGGCUCC [Loop Effect - C29] (Eterna round: R96, puzzle: Same State NG 2)” the same measures were 0.0106 µM, 0.0183 µM and 0.0236 µM.
The matching figures for “UUGCGCUGUCGAGAGGAUAUGCGGUGUUGGACAUGAGGAUCACCCAUGUUAGCGAUUGCUUUACGGUAGAAGGCUCUUCAGCUGC [salish99_ss2_r3_098] (Eterna round: R96, puzzle: Same State 2)”: 0.074 µM, 0.0501 µM and 0.0828 µM.
On to “GGUUUAGUCAGGUGCAGUUGCACCUGAAAACAUGAGGAUCACCCAUGUUUGGGACAAGCUUUGCUCCUCGUCUUGCA [Orinen] (puzzle: Sensor for hsa-mir-208a)”, for which the “apparent KD of MS2 coat protein” value turned out to be 0.341 µM in series [3] (setting [5]), 0.0706 µM in series [3] (setting [6]) and 0.545 µM in series [3] (setting [7]).
Turning to “CUGCUCGGGUGAGGAUAUGCCGCCGUUUCGGCUGCAGAAGGUGCUACGUUACAUGAGGAUCACCCAUGUCUCUGUUGUUUCGUC [salish99_SSNG1_r04_967] (Eterna round: R96, puzzle: Same State NG 1)”, the “apparent KD of MS2 coat protein” value in series [3] (input ligand: FMN 200 uM) turned out to be 0.074 µM; in series [3] (setting [4]), 0.041 µM; in series [3] (input ligand: none), 0.0573 µM.
For “CUCAAACAUGAGGAUCACCCAUGUGUUGUCAUGGGAGGAUAUCCCAGUUCGGUGACGUCGGGAGAAGGCCUAUGUC [× ×•×ª×• ×ž×“×™× ×” × ×—×ª-15] (puzzle: Same State 1)”, in series [3] (setting [6]), the “apparent KD of MS2 coat protein” value is 0.0777 µM.
Consider “UGGAUCUAGGCUUGCCUGGGUCCAUGUUGACAUGAGGAUCACCCAUGUGUAUUUUAUAAGCUUUUUGUUUGUCAACA [JL A Humble Attempt mod 7] (puzzle: Sensor for hsa-mir-208a)”, for which the entries for the “apparent KD of MS2 coat protein” value in series [3] (setting [5]) and in series [3] (setting [7]) were 0.037 µM and 0.0376 µM, respectively.
As for “GUAGCAUACCGAGGAUAUUCAUAUUAUACAUGAGGAUCACCCAUGUUAGGCCGAUUACGGCCUUGGGAGAAGGCGGAAUGCUAC [Xeonanis - 20 Mod20] (Eterna round: R96, puzzle: Same State NG 2)”, the results for the “apparent KD of MS2 coat protein” value in series [3] (input ligand: FMN 200 uM), in series [3] (setting [4]) and in series [3] (input ligand: none) were 0.0218 µM, 0.0533 µM and 0.075 µM, respectively.
As to “AGCCGAGACUGAGGAUAUUUUAAUCUACAUGAGGAUCACCCAUGUAACAACACGUGGUAGUGAUAGAAGAAGGCGGCUCGGCGC [Omei SS(NG)2 Cv1] (Eterna round: R96, puzzle: Same State NG 2)”, the “apparent KD of MS2 coat protein” value in series [3] (input ligand: FMN 200 uM) came to 0.176 µM; in series [3] (setting [4]), 0.162 µM; in series [3] (input ligand: none), 0.386 µM.
